The values below come from publication PMC4075454.

In test [1] the target is WDR5 (UniProt P61964). Briefly: peptide pull-down, silver stain, MALDI-TOF identification. The following applies: reference: unmodified H3 peptide; sites T11.
Test [2] addresses WDR5 (UniProt P61964). Briefly: biotin-peptide streptavidin pull-down, anti-GST blot. As to conditions: reference: unmodified H3 peptide; sites T11.

Regarding “histone H3 (synthetic tail peptides) 1-21 (from UniProt P68431) H3T11P peptide”, the “binding against the reference” value with WDR5 [1] and in the test with WDR5 [2] was “stronger” throughout.
